The source of these data is patent US20170158755A1.

First the molecules themselves.
B1: chimeric 19C12 antibody (antibody, V domains shown)
VH: QVQLQQSGAELVKPGASVKISCKASGYAFSTYWMNWVKQRPGEGLEWIGQIYPGDGDTNYNGKFKGKATLTADKSSSTAYMQLSSLTSEDSAVYFCARSDGYYDYWGQGTTLTVSS
VL: NIVLTQSPASLAVSLGQRATISCRASESVDSYGTSFMHWYQQKPGQPPKLLICLASSLESGVPARFSGSGSRTDFTLTIDPVEADDAATYYCQQNNEDPPTFGAGTKLELKR
B2: humanized 19C12 antibody H2L4 (antibody, V domains shown)
VH: QVQLQQSGAELVKPGASVKVSCKASGYAFSTYWMNWVRQAPGQGLEWIGQIYPGDGDTNYNGKFKGRVTITADKSTSTAYMELSSLRSEDTAVYFCARSDGYYDYWGQGTTVTVSS
VL: B1 VL with Q17E, C53S, R72G, D80S, D85E, L110I
B3: humanized 19C12 antibody H3L6 (antibody, V domains shown)
VH: B2 VH with Q1E
VL: B1 VL with N1D, Q17E, C53S, R72G, D80S, D85E, L110I
B4: humanized 19C12 antibody H2L3 (antibody, V domains shown)
VH: B2 VH
VL: B1 VL with Q17E, D85E, L110I
B5: humanized 19C12 antibody H2L6 (antibody, V domains shown)
VH: B2 VH
VL: B1 VL with N1D, Q17E, C53S, R72G, D80S, D85E, L110I
B6: Fab fragment of chimeric 19C12 (Fab, V domains shown)
VH: B1 VH
VL: B1 VL
B7: Fab fragment of humanized 19C12 H2L3 (Fab, V domains shown)
VH: B2 VH
VL: B1 VL with Q17E, D85E, L110I
B8: Fab fragment of humanized 19C12 H2L6 (Fab, V domains shown)
VH: B2 VH
VL: B1 VL with N1D, Q17E, C53S, R72G, D80S, D85E, L110I
B9: Fab fragment of humanized 19C12 H3L6 (Fab, V domains shown)
VH: B2 VH with Q1E
VL: B1 VL with N1D, Q17E, C53S, R72G, D80S, D85E, L110I
B10: Fab fragment of humanized 19C12 H2L4 (Fab, V domains shown)
VH: B2 VH
VL: B1 VL with Q17E, C53S, R72G, D80S, D85E, L110I

Substitutions are numbered along the chain they refer to.

One experiment addresses His-LAMA4 as used in Example 6 (species not stated) (Homo sapiens (Human)) (UniProt Q16363). Kind of experiment: ForteBio BLI, LAMA-His on anti-His sensor, antibody 16.7 nM. (In BLI a coated tip is dipped into the sample, and binding shifts an interference pattern.)
By Kd is commonly meant the constant that tells how readily two partners part at equilibrium. Read a high Kd as lower affinity. A word on the koff: it is the first-order rate constant of dissociation. A word on the kon: it is the rate constant with which the complex forms. Read a high kon as faster complex formation. The molecule B1 gave a Kd of 53.8 pM, a Response of 1.27, a koff of 0.000403 s⁻¹ and a kon of 7.49e+06 M⁻¹ s⁻¹.
The like results for B2 were, in that order, 22.7 pM, 1.26, 0.000227 s⁻¹ and 9.98e+06 M⁻¹ s⁻¹.
Taken in the same sequence, the figures for B3 were 62.6 pM, 1.21, 0.000501 s⁻¹ and 8.01e+06 M⁻¹ s⁻¹.
Molecule B4 yielded a dissociation constant (Kd) of 50.7 pM, a Response of 1.34, an off-rate (koff) of 0.000363 s⁻¹ and an on-rate constant (kon) of 7.16e+06 M⁻¹ s⁻¹.

The target is the same in a further experiment. The experiment in a line: ForteBio BLI, LAMA-His on anti-His sensor, antibody 33.3 nM.
As to B1, the dissociation constant Kd amounted to 111 pM, the Response turned out to be 1.38, the koff was determined as 0.000487 s⁻¹ and the on-rate constant (kon) turned out to be 4.37e+06 M⁻¹ s⁻¹.
Taken in the same sequence, the figures for B2 were 127 pM, 1.25, 0.00062 s⁻¹ and 4.87e+06 M⁻¹ s⁻¹.
Taken in the same sequence, the figures for B3 were 113 pM, 1.38, 0.000553 s⁻¹ and 4.89e+06 M⁻¹ s⁻¹.
Take B5: the equilibrium dissociation constant (Kd) was determined as 123 pM, the Response was found to be 1.26, the dissociation rate constant (koff) came to 0.000585 s⁻¹ and the kon was found to be 4.75e+06 M⁻¹ s⁻¹.
The like results for B4 were, in that order, 115 pM, 1.54, 0.000493 s⁻¹ and 4.29e+06 M⁻¹ s⁻¹.

For a further experiment the target is unchanged. The experiment in a line: Biacore SPR, Fab over His-laminin-α4 captured on anti-6xHis. (In general: In SPR one partner is held on a chip, and binding of the other changes the refractive index at the surface.)
B6 registered a Kd of 620 pM and an off-rate (koff) of 0.0059 s⁻¹.
Molecule B7 returned a dissociation constant (Kd) of 780 pM, a koff of 0.0077 s⁻¹ and a kon of 9.8e+06 M⁻¹ s⁻¹.

The next experiment has the same target. The experiment in a line: Biacore, steady-state approximation; IgG loaded on anti-human Fc sensor, free laminin α4 as analyte.
The molecule B3 came in with a Kd of 1360 pM.

The next experiment has the same target. Kind of experiment: Biacore SPR, Fab over His-laminin-α4 captured on anti-6xHis; Fab, not IgG; kinetic fit.
For the molecule B6, the kon is 9.5e+06 M⁻¹ s⁻¹.

A further experiment shares this target. The experiment in a line: ForteBio BLI, LAMA-His on anti-His sensor, antibody 8.33 nM.
B1: the equilibrium dissociation constant (Kd) amounted to 12.6 pM, the Response is 1.15, the off-rate (koff) came to 0.000251 s⁻¹ and the on-rate constant (kon) is 2e+07 M⁻¹ s⁻¹.
Taken in the same sequence, the figures for B2 were 16.1 pM, 1.18, 0.000268 s⁻¹ and 1.67e+07 M⁻¹ s⁻¹.
The like results for B3 were, in that order, 13.5 pM, 1.2, 0.000286 s⁻¹ and 2.11e+07 M⁻¹ s⁻¹.
The like results for B5 were, in that order, 15.4 pM, 1.13, 0.000308 s⁻¹ and 2e+07 M⁻¹ s⁻¹.
For the molecule B4, the Kd was determined as 12.4 pM, the Response was 1.23, the koff came out at 0.000256 s⁻¹ and the on-rate (kon) was 2.07e+07 M⁻¹ s⁻¹.

For a further experiment the target is unchanged. The experiment in a line: Biacore SPR, Fab, steady-state approximation.
The molecule B6 yielded a Kd of 980 pM.
On to B8, for which the dissociation constant Kd was 8400 pM.
Same read-out and setting: the same measure for B9: 7200 pM; for B10: 7100 pM; for B7: 1900 pM.

For a further experiment the target is unchanged. The experiment in a line: Biacore, steady-state approximation; IgG loaded on anti-human Fc sensor, free laminin α4 as analyte; IgG on anti-human Fc sensor, free laminin α4 as analyte; steady state.
Take B4: the equilibrium dissociation constant (Kd) came out at 1860 pM.
